Reference: patent US20140011728A1

Molecular target: IL-1 receptor expressed by INS-1 cells (rat (INS-1 cells are derived from a rat insulinoma)) (UniProt Q02955)

Substance: IL-1β (ligand)
- NO release: 6.56 µM
